Assay results taken from US20240247080A1, “GLP1/GIP/NPY2 RECEPTOR TRIPLE AGONISTS” (Boehringer Ingelheim International GmbH, priority 2022, published 2024).
Substitutions are numbered along the chain they refer to. Where two headings read alike, the source gives them in different places. Starred links: 1 amine or outer side, 2 acyl side, 3 side chain; linkers in the order of their positions; H or OH if unused. Non-standard residues stand in square brackets, D forms with d. Groups on a side chain read outwards from the residue. No end group written: not given here. *: point of attachment. C20 diacid = O=C(O)CCCCCCCCCCCCCCCCCCC(=O)*; C18 diacid = O=C(O)CCCCCCCCCCCCCCCCC(=O)*; γGlu = O=C(O)[C@H](CCC(=O)[*:2])N[*:1]; εLys = N[C@@H](CCCCN[*:1])C(=O)[*:2]; AEEA = NCCOCCOCC(=O)O; Aib = CC(C)(N)C(=O)O; Ahx = NCCCCCC(=O)O

T1: hGIPR (Homo sapiens, UniProt P48546)
T1 construct: expressed in transfected cells; host or cells: CHO cells carrying a CRE-luciferase reporter gene
T1 sequence (P48546 22-466): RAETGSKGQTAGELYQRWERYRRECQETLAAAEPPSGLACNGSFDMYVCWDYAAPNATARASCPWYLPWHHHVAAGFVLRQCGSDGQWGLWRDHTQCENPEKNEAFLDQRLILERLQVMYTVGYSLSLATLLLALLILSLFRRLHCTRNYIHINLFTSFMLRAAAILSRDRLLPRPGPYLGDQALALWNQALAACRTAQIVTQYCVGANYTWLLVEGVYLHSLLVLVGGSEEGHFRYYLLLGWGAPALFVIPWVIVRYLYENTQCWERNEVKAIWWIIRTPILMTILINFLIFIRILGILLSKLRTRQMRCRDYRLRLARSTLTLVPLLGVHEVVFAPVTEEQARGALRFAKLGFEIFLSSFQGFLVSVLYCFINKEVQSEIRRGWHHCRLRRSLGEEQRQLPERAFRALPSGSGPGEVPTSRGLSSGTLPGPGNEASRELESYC

T2: hNPY2R (Homo sapiens, UniProt P49146)
T2 construct: expressed in transfected cells; host or cells: HEK-293 cells carrying a CRE-luciferase reporter gene
T2 sequence (P49146 1-381): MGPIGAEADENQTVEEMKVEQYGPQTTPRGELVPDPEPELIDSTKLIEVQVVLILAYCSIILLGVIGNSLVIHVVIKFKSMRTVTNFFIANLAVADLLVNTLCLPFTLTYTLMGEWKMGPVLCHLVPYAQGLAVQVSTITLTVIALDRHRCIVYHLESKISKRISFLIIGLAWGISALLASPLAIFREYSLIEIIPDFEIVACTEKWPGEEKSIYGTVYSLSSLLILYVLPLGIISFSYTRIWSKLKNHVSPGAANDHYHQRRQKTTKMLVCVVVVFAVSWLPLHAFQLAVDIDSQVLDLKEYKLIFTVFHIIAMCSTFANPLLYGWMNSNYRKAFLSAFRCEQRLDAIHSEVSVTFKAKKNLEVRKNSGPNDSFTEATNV

T3: human GIP receptor (human, UniProt P48546 22-466)
T3 sequence (looked up): T1 sequence (P48546 22-466)

T4: human neuropeptide Y2 receptor (human, UniProt P49146 1-381)
T4 sequence (looked up): T2 sequence (P49146 1-381)

B1: Compound 170 (peptide)
peptide: YXEGTFTSDYSIXLEKQAQXAFVQWLIKGGPSSGASLRHYYNWLTRQRY
modifications: Aib at 2, 13, 20; K28 side chain: C18DA-gGlu-gGlu-gGlu-gGlu-gGlu-gGlu-eLys; C-terminal NH2
B2: Compound 172 (peptide)
peptide: B1 peptide with Y10L, Q24E
modifications: Aib at 2, 13, 20; K28 side chain: C20DA-gGlu-gGlu-gGlu-gGlu-gGlu-gGlu-eLys; C-terminal NH2
B3: Compound 89 (peptide)
peptide: B1 peptide with S32E, S33E
modifications: Aib at 2, 13, 20; K28 side chain: C20DA-gGlu-gGlu-gGlu-gGlu-gGlu-gGlu-eLys; C-terminal NH2

How the values were obtained:
hGLP1R = biological target: T5, hGLP1R (Homo sapiens, UniProt P43220); experiment: hGLP1R CreLuc reporter gene assay in 0.5% and 100% plasma; assay type: cell-based; settings: CreLuc reporter gene assay, 0.5% human plasma; read-out: hGLP1R 0.5% hP
T5 construct: expressed in transfected cells; host or cells: HEK-293 cells carrying a CRE-luciferase reporter gene
Summary of the method: (§1)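 Agonist EC50s came from 8-concentration curves over four decades, fitted by non-linear variable-slope regression of CRE-driven luciferase luminescence. Cells were exposed 4 h at 37 °C, in buffer with 0.5% human plasma or in 100% plasma; GIPR was expressed in CHO cells, GLP-1R and NPY2R in HEK cells.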

hGIPR = biological target: T1, hGIPR; experiment: hGIPR CreLuc reporter gene assay in 0.5% and 100% plasma; assay type: cell-based; settings: CreLuc reporter gene assay, 0.5% human plasma; read-out: hGIPR 0.5% hP
Summary of the method: as §1

hNPY2R = biological target: T2, hNPY2R; experiment: hNPY2R CreLuc reporter gene assay in 0.5% and 100% plasma; assay type: cell-based; settings: CreLuc reporter gene assay
Summary of the method: as §1

human GLP-1 receptor = human GLP-1 receptor (human, UniProt P43220 24-463); experiment: cell-based or functional assay
human GIP receptor = biological target: T3, human GIP receptor; experiment: cell-based or functional assay
[1] = biological target: T4, human neuropeptide Y2 receptor; experiment: cell-based or functional assay

T5 sequence (P43220 24-463): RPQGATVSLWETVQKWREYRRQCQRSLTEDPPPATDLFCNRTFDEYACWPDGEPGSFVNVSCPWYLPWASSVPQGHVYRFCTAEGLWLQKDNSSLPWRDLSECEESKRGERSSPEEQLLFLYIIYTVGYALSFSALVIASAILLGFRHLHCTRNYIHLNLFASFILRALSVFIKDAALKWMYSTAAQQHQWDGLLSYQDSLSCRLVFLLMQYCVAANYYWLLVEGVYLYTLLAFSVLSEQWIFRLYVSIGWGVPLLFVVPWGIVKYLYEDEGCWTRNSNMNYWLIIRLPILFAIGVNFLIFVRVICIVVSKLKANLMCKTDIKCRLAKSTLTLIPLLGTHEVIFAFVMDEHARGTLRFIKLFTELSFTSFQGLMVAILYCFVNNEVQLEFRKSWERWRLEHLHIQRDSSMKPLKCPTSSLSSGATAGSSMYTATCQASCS

| Molecule | EC50 (hGLP1R) [nM] | EC50 (hGIPR) [nM] | EC50 (hNPY2R; 0.5% human plasma, read-out: hNPY2R 0.5% hP) [nM] | EC50 (hNPY2R; 100% human plasma, read-out: hNPY2R 100% hP) [nM] | EC50 CreLuc hGLP1R 0.5% hP (human GLP-1 receptor) [nM] | EC50 CreLuc hGLP1R 100% hP (human GLP-1 receptor) [nM] | EC50 CreLuc hGIPR 0.5% hP (human GIP receptor) [nM] | EC50 CreLuc hGIPR 100% hP (human GIP receptor) [nM] | EC50 CreLuc hNPY2R 0.5% hP [1] [nM] | EC50 CreLuc hNPY2R 100% hP [1] [nM] |
| --- | --- | --- | --- | --- | --- | --- | --- | --- | --- | --- |
| Y[Aib]EGTFTSDYSI[Aib]LEKQAQ[Aib]AFVQWLIK([Ahx-γGlu-γGlu-γGlu-γGlu-γGlu-γGlu-C18 diacid])GGPSEGASLRHYYNWLTRQRY-NH2 [Compound 245, Y-Aib-E-G-T-F-T-S-D-Y-S-I-Aib-L-E-K-Q-A-Q-Aib-A-F-V-Q-W-L-I-K(1,3)-GGPSEGASLRHYYNWLTRQRY-NH2.C18DA-gGlu-gGlu-gGlu-glu-gGlu-Glu-AHX(1,2)] | 0.09 | 0.37 | 24.5 | – | – | – | – | – | – | – |
| Y[Aib]EGTFTSDYSI[Aib]LEKQAQ[Aib]AFVQWLIK([Glu-γGlu-γGlu-γGlu-γGlu-C20 diacid])GGPSEGASLRHYYNWLTRQRY-NH2 [Compound 243, Y-Aib-E-G-T-F-T-S-D-Y-S-I-Aib-L-E-K-Q-A-Q-Aib-A-F-V-Q-W-L-I-K(1,3)-GGPSEGASLRHYYNWLTRQRY-NH2.C20DA-gGlu-gGlu-gGlu-gGlu-Glu(1,2)] | 0.12 | 0.54 | – | 50.6 | – | – | – | – | – | – |
| Y[Aib]EGTFTSDYSI[Aib]LEKQAQ[Aib]AFVQWLIK([εLys-γGlu-γGlu-γGlu-γGlu-γGlu-C20 diacid])GGPSEPASLRHYYNWLTRQRY-NH2 [Compound 169] | – | – | – | – | 0.13 | 7.3 | 0.26 | 3.15 | 10.3 | 50.3 |
| Y[Aib]EGTFTSDYSI[Aib]LEKQAQ[Aib]EFVEWLIK([AEEA-AEEA-γGlu-γGlu-γGlu-C18 diacid])GGPSSGASLRHYYNWLTRQRY-NH2 [Compound 171] | – | – | – | – | 0.27 | 4.17 | 0.2 | 0.83 | 7.51 | 30.4 |
| B1 | – | – | – | – | 0.09 | 0.98 | 0.24 | 1.15 | 19.2 | 33.2 |
| B2 | – | – | – | – | 0.07 | 2 | 0.21 | 1.83 | 20.2 | 86.1 |
| B3 | – | – | – | – | 0.25 | 8.9 | 1.01 | 1.7 | 14.8 | 42.4 |
| Y[Aib]EGTFTSDYSI[Aib]LEKQAQ[Aib]EFVEWLIK([εLys-γGlu-γGlu-γGlu-γGlu-γGlu-γGlu-γGlu-C20 diacid])GGPSSGASLRHYYNWLTRQRY-NH2 [Compound 88] | – | – | – | – | 1.12 | 7.18 | 0.53 | 1.58 | 20.4 | 45.4 |
